From PMC4157418

Molecular target: Acinetobacter baumannii alanine racemase (Acinetobacter baumannii strain NCTC13302) (UniProt B0VNF6)
Experiment: crystal structure; sitting drops, 100 mM MES pH 6.0, 200 mM CaCl2, 20% PEG 6000; space group P2(1), two monomers in the asymmetric unit; 1.9 Å; interface analysed with PISA

Acinetobacter baumannii alanine racemase (from UniProt B0VNF6 1-367) (enzyme)
stoichiometry N: 2
